Laboratory results reported in patent US20250027068.
Positions count from the first letter of the chain named.

B1: PRT-278 (protein)
chain: MVTSVWTKGVTPPTDFIYGEDVLHAPYKAGQGWYDITKLFNGKDNLLCGAATAGNMLHWWFDQNKEQIENYLKKHPEKQKIIFNNQELFDLKAAIDTKDSQLDSKLFDYFKEKAFPYLSTKHLGVFPDHVIDMFINGYRLSLTNHGPTPVKRGSKDKRGGIFDAVFTRGVQSKLLTNRHDLKNKTLKEISDLIKQELTEGKALGISHTYANVRINHVINLWGADFDAEGNLEAIYVTDSDTNPSIGMKKYFVGVNSSGKVAISAKEIEEDNIGAQVLGLFTLSTGQDIWNQTN
B2: PRT-286 (protein)
chain: MVTSVWTKGVTPPAKFTQGEDVFHAPYDANQGWYDITKTFNGKDDLLCGAATAGNMLHWWFDQNKEKIEAYLKKHPDKQKIMFGDQELLDVRKVINTKGDQTNSELFNYFRDKAFPNLSARRIGVMPDLVLDMFINGYYLNVYKTQTTDVNRTYQEKDRRGGIFDAVFTRGDQSKLLTSRHDFKEKNLKEISDLIKKELTEGKALGLSHTYANVRISHVINLWGADFDSNGNLKAIYVTDSDSNASIGMKKYFVGVNSSGKVAISAKEIKEDNIGAQVLGLFTLSTGQDSWNQTN
B3: PRT-2 (protein)
chain: MANQEIRYSEVTPYHVTSVWTKGVTPPAKFTQGEDVFHAPYVANQGWYDITKTFNGKDDLLCGAATAGNMLHWWFDQNKEKIEAYLKKHPDKQKIMFGDQELLDVRKVINTKGDQTNSELFNYFRDKAFPGLSARRIGVMPDLVLDMFINGYYLNVYKTQTTDVNRTYQEKDRRGGIFDAVFTRGDQSKLLTSRHDFKEKNLKEISDLIKKELTEGKALGLSHTYANVRINHVINLWGADFDSNGNLKAIYVTDSDSNASIGMKKYFVGVNSAGKVAISAKEIKEDNIGAQVLGLFTLSTGQDSWNQTN
B4: PRT-546 (protein)
chain: MANQEIRYSEETPKTITSVWTKGVTPPTDFIKNEDVLHAPYIANQGWYDITKTFNGKDDLLCGAATAGNMLHWWFDQNKEEIENYLKKHPEKQKINFNGEQMFDVKEAIDTKDSQTDSALFEYFKDKAFPYLSTKHLGVFPDHVIDMFINGYRLSLTNHGPTPVKRGTKDPRGGIFDAVFTRGDQSKLLTSRHDFKEKTLNEISDLIKQELTEGKALGLSHTYANVRINHVINLWGADFNSEGNLEAIYVTDSDSNASIGMKKYYVGVNSAGKVAISAKEIEGDNIGAQVLGLFTLSTGQDIWEQTNLEHHHHHH
B5: PRT-530 (protein)
chain: MANQEIRYSEETPKTITSVWTKGVTPPTDFIQNEDVLHAPYIANQGWYDITKTFNGKDDLLCGAATAGNMLHWWFDQNKEEIENYLKKHPEKQKINFNGEQMFDVKEAIDTKDSQTDSALFEYFKDKAFPYLSTKHLGVMPDLVLDMFINGYYLSVGKHGPTPVKRGTKDPRGGIFDAVFTRGDQSKLLTARHDFKEKTLNEISDLIKQELTEGKALALSHTYANVRINHVINLWGADFNSEGNLEAIYVTDSDSNASIGMKKYYVGVNAAGKVAISAKEIEGDNIGAQVLGLFTLSTGQDIWEQTNLEHHHHHH
B6: PRT-551 (protein)
chain: B4 chain with K14S, K32Q, S191A, S270A, E304N
B7: PRT-592 (protein)
chain: B4 chain with K14S, K32Q, E81Q, D113N, S241A, E304N
B8: PRT-536 (protein)
chain: MANQEIRYSGDSEWANKKVWVYGITPAEEGAWLYSTYYLPWKKEYGWYDCNKRNPTADGMMCWAASASNLMHWWIAQNKRYIDLYGDRYKGPDKINFNGEQMFDVKEYIDPLDKPQESDIFQCFIDKSFADLSTKHEAGKGDEGINWFIHGIIPSYPAHGPTPVKLRYPYNPAGYFKDVFPRGDGVVLGGNNGDFKELGKERFNETIKDALANKKGIGLSIGPVNVRKSHVETMWGAEFDENGDVSYIYMADNNDRWGVGCIRLQIVYVEGATYTCYKTEIIPSDRPIPINRLVTVELGEEYWKQTNLEHHHHHH
B9: PRT-562 (protein)
chain: MANQEIRYSKATPSHITSVWTKGVTPPEQFIQNEDVLHAPYIANQGWYDITKTFNGKDDLLCGAATAGNMLHWWFDQNKEQIENYLKKHPEKQKINFNGEQMFDVKEAIDTKDSQTNSALFSYFKDKAFPYLSTKHLGVFPDHVIDMFINGYRLSLTNHGPTPVKEQTKDPRGGIFDAVFTRGDQSKLLTSRHDFKEKTLNEISQLIKQELTEGKALGLSHTYANVRINHVINLWGADFNAEGNLEAIYVTDSDSNASIGMKKYYVGVNSAGKVAISAKEIEGDNIGAQVLGLFTLSTGQDIWQQTNLEHHHHHH
B10: PRT-540 (protein)
chain: MANQEIRYSKNENPNVTIKWVHGIGEPTQAEKEKIEFYWYETNTTKFFNNRKVTHLGDSNQCWAKTASNMLHWWFVQNKENINKYIEKKNITGKINFNGEQMFDVKEGIDDNQEKEKSYIANTFRTKKAHNLSTKHKGDYIINGLAWYLYGLNNFKNAHGPTPVKKKPKFYGPALFKDVFNRGDGNTPIIEETDFKEYTKKEFEDTLSEALDSKKAIGINIYGSNVDYGHAITLWGAAFDEDENIIAIYVVDNNFKFENRIFPYGIWYEKEGRPYLFNYEINSFVKNRYVGEITTLDKGEAQWQETNLEHHHHHH
B11: PRT-279 (protein)
chain: B1 chain with D108E, K111L, Y235A, P243A
B12: PRT-41 (protein)
chain: MANQEIRYSEVTPYHVTSVWTKGVTPPANFTQGEDVFHAPYVANQGWYDITKTFNGKDDLLCGAATAGNMLHWWFDQNKDYIDRYLEEHPEKQKINFNGEQMFDVKEAIDTKNSQLDSKLFEYFKEKAFPYLSTKHLGVFPDLVLDMFINGYRLSLTNHGPTPVKEGSKDPRGGIFDAVFTRGDQSKLLTSRHDFKEKNLKEISDLIKKELTEGKALGLSHTYANVRINHVINLWGADFDSNGNLKAIYVTDSDSNASIGMKKYFVGVNSAGKVAISAKEIKEDNIGAQVLGLFTLSTGQDSWNQTN
B13: PRT-287 (protein)
chain: B2 chain with D28V, T39E, S217G, F253G, S259A
B14: PRT-548 (protein)
chain: B4 chain with S186T, S191A, S270A
B15: PRT-560 (protein)
chain: B4 chain with K32Y, E81Q, N84R, G167Q, N201K, N240D, S241A
B16: PRT-593 (protein)
chain: B4 chain with K14S, K32Q, E81Q, S114H, S241A, E304N
B17: PRT-591 (protein)
chain: B4 chain with K14S, K32Q, E81Q, E83K, S241A, E304N

Molecular target: pooled human IgG

Protein	Enzyme Activity Endpoint Assay: Fab′2	Enzyme Activity Endpoint Assay: Fc	Enzyme Activity Endpoint Assay: IgG	Enzyme Activity Endpoint Assay: scIgG
B1	547 ng/µL	315 ng/µL	0 ng/µL	0 ng/µL
B2	650 ng/µL	352 ng/µL	0 ng/µL	0 ng/µL
B3	47 ng/µL	94 ng/µL	21 ng/µL	0 ng/µL
B4	722 ng/µL	390 ng/µL	0 ng/µL	236 ng/µL
B5	87 ng/µL	225 ng/µL	74 ng/µL	687 ng/µL
B6	444 ng/µL	217 ng/µL	0 ng/µL	0 ng/µL
B7	664 ng/µL	359 ng/µL	0 ng/µL	0 ng/µL
B8	0 ng/µL	0 ng/µL	1530 ng/µL	0 ng/µL
B9	705 ng/µL	380 ng/µL	0 ng/µL	238 ng/µL
B10	0 ng/µL	0 ng/µL	1490 ng/µL	0 ng/µL
B11	574 ng/µL	359 ng/µL	48 ng/µL	0 ng/µL
B12	24 ng/µL	94 ng/µL	19 ng/µL	50 ng/µL
B13	700 ng/µL	392 ng/µL	0 ng/µL	0 ng/µL
B14	727 ng/µL	458 ng/µL	0 ng/µL	0 ng/µL
B15	210 ng/µL	233 ng/µL	41 ng/µL	312 ng/µL
B16	797 ng/µL	396 ng/µL	0 ng/µL	0 ng/µL
B17	0 ng/µL	34 ng/µL	671 ng/µL	0 ng/µL
